For one substance, sensitivity of the gp120 ELISA results are on record in patent publication US20240148901A1.

This assay addresses Recombinant gp120JR-FL (MyBioSource) (HIV). In words: modified gp120 ELISA: gp120JR-FL coated plate, NanoLuc luminescence read-out. On the technique in general: An ELISA detects its analyte on a solid surface through an enzyme-linked reagent.

As for “secreted PGT121-NanoLuc, purified (antibody)”, the sensitivity of the gp120 ELISA worked out at 500 pg/mL.
